Laboratory results from patent US20060270591A1 (published 2006).

T1: VP16 fused near full-length AR (nAR, aa 36-918) (human, UniProt P10275 36-919)
T1 sequence: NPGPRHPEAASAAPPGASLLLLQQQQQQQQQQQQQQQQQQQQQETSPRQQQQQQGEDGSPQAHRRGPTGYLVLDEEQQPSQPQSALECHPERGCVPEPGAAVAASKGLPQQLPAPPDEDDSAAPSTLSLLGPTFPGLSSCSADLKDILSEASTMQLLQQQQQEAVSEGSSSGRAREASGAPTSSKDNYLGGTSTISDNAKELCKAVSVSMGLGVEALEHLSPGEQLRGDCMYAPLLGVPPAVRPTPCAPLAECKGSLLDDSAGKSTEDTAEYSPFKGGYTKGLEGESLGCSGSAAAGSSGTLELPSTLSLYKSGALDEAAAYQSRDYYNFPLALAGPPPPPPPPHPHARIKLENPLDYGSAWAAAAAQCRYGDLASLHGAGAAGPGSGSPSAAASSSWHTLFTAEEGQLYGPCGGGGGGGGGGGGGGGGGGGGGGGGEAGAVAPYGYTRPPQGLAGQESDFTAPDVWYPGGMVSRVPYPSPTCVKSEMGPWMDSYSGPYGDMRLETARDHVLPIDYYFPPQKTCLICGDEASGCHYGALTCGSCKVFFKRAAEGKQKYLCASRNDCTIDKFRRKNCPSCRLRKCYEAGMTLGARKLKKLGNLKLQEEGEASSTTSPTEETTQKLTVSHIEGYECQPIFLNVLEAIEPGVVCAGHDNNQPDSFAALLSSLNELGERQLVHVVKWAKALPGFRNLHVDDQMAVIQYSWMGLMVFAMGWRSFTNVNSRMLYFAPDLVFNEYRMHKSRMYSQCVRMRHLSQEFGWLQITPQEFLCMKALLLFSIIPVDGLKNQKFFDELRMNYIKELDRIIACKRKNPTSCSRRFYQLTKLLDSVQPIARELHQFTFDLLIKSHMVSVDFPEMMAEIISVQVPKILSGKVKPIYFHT

T2: GST-ARA267N2 (ARA267 aa 1-984) (human, UniProt Q96L73 280-1253)
T2 sequence: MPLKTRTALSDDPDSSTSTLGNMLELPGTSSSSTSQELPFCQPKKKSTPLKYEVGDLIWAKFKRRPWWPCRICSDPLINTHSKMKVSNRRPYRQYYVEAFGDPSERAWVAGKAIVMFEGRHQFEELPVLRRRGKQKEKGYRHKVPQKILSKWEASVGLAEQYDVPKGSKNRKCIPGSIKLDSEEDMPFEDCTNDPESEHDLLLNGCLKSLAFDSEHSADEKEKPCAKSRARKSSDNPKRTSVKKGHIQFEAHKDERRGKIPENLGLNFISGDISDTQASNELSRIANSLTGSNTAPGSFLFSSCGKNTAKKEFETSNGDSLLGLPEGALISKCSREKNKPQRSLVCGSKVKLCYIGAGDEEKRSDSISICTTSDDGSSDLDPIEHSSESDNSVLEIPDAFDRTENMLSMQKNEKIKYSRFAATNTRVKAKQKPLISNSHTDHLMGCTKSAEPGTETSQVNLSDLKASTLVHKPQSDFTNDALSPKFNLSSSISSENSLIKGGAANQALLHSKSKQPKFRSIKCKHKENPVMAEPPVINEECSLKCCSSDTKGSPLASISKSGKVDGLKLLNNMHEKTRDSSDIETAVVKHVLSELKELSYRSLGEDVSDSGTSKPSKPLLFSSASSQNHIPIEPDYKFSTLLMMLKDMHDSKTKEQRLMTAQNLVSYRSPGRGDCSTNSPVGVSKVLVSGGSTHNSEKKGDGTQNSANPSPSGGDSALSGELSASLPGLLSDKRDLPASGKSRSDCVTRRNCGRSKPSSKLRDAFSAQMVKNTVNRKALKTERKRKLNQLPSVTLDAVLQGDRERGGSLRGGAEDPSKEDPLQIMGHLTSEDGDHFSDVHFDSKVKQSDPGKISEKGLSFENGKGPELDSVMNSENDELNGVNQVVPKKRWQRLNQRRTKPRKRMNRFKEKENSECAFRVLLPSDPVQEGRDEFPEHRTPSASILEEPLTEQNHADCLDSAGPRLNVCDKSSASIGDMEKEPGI

T3: GST-ARA267C (ARA267 aa 1716-2427) (human, UniProt Q96L73 1985-2696)
T3 sequence: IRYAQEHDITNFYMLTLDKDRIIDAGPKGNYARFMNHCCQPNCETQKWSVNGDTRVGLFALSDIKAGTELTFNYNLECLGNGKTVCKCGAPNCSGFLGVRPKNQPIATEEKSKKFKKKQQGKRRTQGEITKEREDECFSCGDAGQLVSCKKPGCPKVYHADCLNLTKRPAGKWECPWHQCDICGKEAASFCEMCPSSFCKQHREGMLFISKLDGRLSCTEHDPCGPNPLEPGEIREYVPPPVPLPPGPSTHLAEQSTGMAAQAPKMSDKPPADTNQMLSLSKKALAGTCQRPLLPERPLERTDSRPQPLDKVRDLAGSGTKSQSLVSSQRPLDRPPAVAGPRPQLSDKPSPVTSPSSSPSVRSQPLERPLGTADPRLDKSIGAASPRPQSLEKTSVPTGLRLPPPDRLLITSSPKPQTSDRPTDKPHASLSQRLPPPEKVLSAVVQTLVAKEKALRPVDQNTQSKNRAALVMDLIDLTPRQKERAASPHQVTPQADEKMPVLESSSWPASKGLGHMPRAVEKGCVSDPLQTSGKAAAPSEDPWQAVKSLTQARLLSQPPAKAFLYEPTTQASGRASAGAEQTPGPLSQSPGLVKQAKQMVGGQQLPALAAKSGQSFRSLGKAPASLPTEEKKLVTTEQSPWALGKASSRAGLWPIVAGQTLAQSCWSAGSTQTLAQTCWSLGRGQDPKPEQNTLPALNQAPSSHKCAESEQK

B1: GAL4 AD fused C-terminal region of ARA54 (C'-ARA54, amino acids 361-474) (other)
chain: ANFNQSGNIADSSLSFTFTNSSNGPNLITTQTNSQALSQPIASSNVHDNFMNNEITASKIDDGNNSKPLSPGWTDQTAYNAFGITTGMFNTTTMDDVYNYLFDDEDTPPNPKKERNEYLQADEANKRLLDQRYGKRVIQKALEEMESKEWLEKNSKSCPCCGTPIEKLDGCNKMTCTGCMQYFCWICMGSLSRANPYKHFNDPGSPCFNRLFYAVDVDDDIWEDEVED
notes: range 768-881; Clone from the prostate cDNA library; also called pACT2-C'-ARA54
B2: GST-ARA267N1 (ARA267 aa 1-382) (other, not shown: a dimerising Fc or GST)
chain: MPLKTRTALSDDPDSSTSTLGNMLELPGTSSSSTSQELPFCQPKKKSTPLKYEVGDLIWAKFKRRPWWPCRICSDPLINTHSKMKVSNRRPYRQYYVEAFGDPSERAWVAGKAIVMFEGRHQFEELPVLRRRGKQKEKGYRHKVPQKILSKWEASVGLAEQYDVPKGSKNRKCIPGSIKLDSEEDMPFEDCTNDPESEHDLLLNGCLKSLAFDSEHSADEKEKPCAKSRARKSSDNPKRTSVKKGHIQFEAHKDERRGKIPENLGLNFISGDISDTQASNELSRIANSLTGSNTAPGSFLFSSCGKNTAKKEFETSNGDSLLGLPEGALISKCSREKNKPQRSLVCGSKVKLCYIGAGDEEKRSDSISICTTSDDGSSDLDP
B3: PR-LBD (mammalian two-hybrid construct) (receptor, UniProt P06401 679-933, looked up)
chain: QDIQLIPPLINLLMSIEPDVIYAGHDNTKPDTSSSLLTSLNQLGERQLLSVVKWSKSLPGFRNLHIDDQITLIQYSWMSLMVFGLGWRSYKHVSGQMLYFAPDLILNEQRMKESSFYSLCLTMWQIPQEFVKLQVSQEEFLCMKVLLLLNTIPLEGLRSQTQFEEMRSSYIRELIKAIGLRQKGVVSSSQRFYQLTKLLDNLHDLVKQLHLYCLNTFIQSRALSVEFPEMMSEVIAAQLPKILAGMVKPLLFHKK
notes: domain: LBD; Construct not described
B4: VP16 AD fused full-length ARA55 (other)
chain: MPRSGAPKERPAEPLTPPPSYGHQPTGQSGESSGASGDKDHLYSTVCKPRSPKPAAPAAPPFSSSSGVLGTGLCELDRLLQELNATQFNITDEIMSQFPSSKVASGEQKEDQSEDKKRPSLPSSPSPGLPKASATSATLELDRLMASLPDFRVQNHLPASGPTQPPVVSSTNEGSPSPPEPTAKGSLDTMLGLLQSDLSRRGVPTQAKGLCGSCNKPIAGQVVTALGRAWHPEHFVCGGCSTALGGSSFFEKDGAPFCPECYFERFSPRCGFCNQPIRHKMVTALGTHWHPEHFCCVSCGEPFGDEGFHEREGRPYCRRDFLQLFAPRCQGCQGPILDNYISALSLLWHPDCFVCRECFAPFSGGSFFEHEGRPLCENHFHARRGSLCPTCGLPVTGRCVSALGRRFHPDHFACTFCLRPLTKGSFQERAGKPYCQPCFLKLFG
notes: also called VP16-ARA55
B5: AR-N (aa 36-553), in vitro translated (receptor)
chain: NPGPRHPEAASAAPPGASLLLLQQQQQQQQQQQQQQQQQQQQQETSPRQQQQQQGEDGSPQAHRRGPTGYLVLDEEQQPSQPQSALECHPERGCVPEPGAAVAASKGLPQQLPAPPDEDDSAAPSTLSLLGPTFPGLSSCSADLKDILSEASTMQLLQQQQQEAVSEGSSSGRAREASGAPTSSKDNYLGGTSTISDNAKELCKAVSVSMGLGVEALEHLSPGEQLRGDCMYAPLLGVPPAVRPTPCAPLAECKGSLLDDSAGKSTEDTAEYSPFKGGYTKGLEGESLGCSGSAAAGSSGTLELPSTLSLYKSGALDEAAAYQSRDYYNFPLALAGPPPPPPPPHPHARIKLENPLDYGSAWAAAAAQCRYGDLASLHGAGAAGPGSGSPSAAASSSWHTLFTAEEGQLYGPCGGGGGGGGGGGGGGGGGGGGGGGGEAGAVAPYGYTRPPQGLAGQESDFTAPDVWYPGGMVSRVPYPSPTCVKSEMGPWMDSYSGPYGDMRLETARDHVLPIDYYF
modifications: [35S]-methionine-labeled
notes: also called AR N-terminal

Columns and labels:
[1] = target: T4, GAL4 DBD fused with C-terminal fragment (aa 595-918) of wild-type AR (human, UniProt P04386 1-147 (Saccharomyces cerevisiae entry)); experiment: yeast two-hybrid
T4 construct: range 1-147; also called pAS2-AR; pAS2-wtAR

[2] = target: T5, GAL4 DBD fused with C-terminal fragment (aa 595-918) of mARt877s (human, UniProt P04386 1-147 (Saccharomyces cerevisiae entry)); experiment: yeast two-hybrid screen of prostate cDNA library
T5 construct: range 1-147; Yeast two-hybrid bait; the text also writes t877a in places; also called pAS2-mtARt877s; mtARt877s

[3] = target: B5; experiment: GST pull-down
[4] = target: T1, VP16 fused near full-length AR (nAR, aa …); experiment: mammalian two-hybrid, DU145, CAT
[5] = target: T6, GAL4 empty vector (GAL4 DBD alone) (UniProt P04386 1-147); experiment: mammalian two-hybrid, DU145, CAT
T6 construct: range 1-147; Control

[6] = target: T2, GST-ARA267N2 (ARA267 aa 1-984); experiment: GST pull-down
[7] = target: T3, GST-ARA267C (ARA267 aa 1716-2427); experiment: GST pull-down

B1
binding result [1]: binds
binding result [2]: binds

B2
binding result [3]: no binding

B3
binding result [4]: no binding

B4
binding result [5]: no binding

B5
binding result [6]: no binding
binding result [7]: no binding
